Laboratory results: article PMC12312913

How the values were obtained:
Test in all cases: BLI; Octet R2; His6-tagged OMP-TF bound to rabbit anti-His mAb and tethered to ProA biosensors; analyte: crude cell lysate of J-Flag at different concentrations; PBS with 0.1% BSA and 0.01% Tween-20; double reference subtraction (buffer and TF sensor); 1:1 binding model
[1] = biological target: OmpX fused to TF and His tag (S. Typhimurium)
[2] = biological target: BtuB fused to TF and His tag (S. Typhimurium) (UniProt P37409)
[3] = biological target: OmpC fused to TF and His tag (S. Typhimurium) (UniProt P0A263)
OmpC fused to TF and His tag (S. Typhimurium), sequence (P0A263 22-378): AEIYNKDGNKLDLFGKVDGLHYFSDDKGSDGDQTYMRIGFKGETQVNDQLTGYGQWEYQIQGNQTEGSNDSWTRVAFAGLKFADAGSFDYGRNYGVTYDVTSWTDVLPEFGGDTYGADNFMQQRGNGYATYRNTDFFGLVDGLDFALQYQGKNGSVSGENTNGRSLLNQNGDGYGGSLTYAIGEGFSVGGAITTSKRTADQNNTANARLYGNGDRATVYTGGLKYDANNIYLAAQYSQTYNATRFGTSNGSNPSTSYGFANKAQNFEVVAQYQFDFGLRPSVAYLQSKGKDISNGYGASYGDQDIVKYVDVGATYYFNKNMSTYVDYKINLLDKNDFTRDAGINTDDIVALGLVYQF

BtuB fused to TF and His tag (S. Typhimurium), sequence (P37409 21-614): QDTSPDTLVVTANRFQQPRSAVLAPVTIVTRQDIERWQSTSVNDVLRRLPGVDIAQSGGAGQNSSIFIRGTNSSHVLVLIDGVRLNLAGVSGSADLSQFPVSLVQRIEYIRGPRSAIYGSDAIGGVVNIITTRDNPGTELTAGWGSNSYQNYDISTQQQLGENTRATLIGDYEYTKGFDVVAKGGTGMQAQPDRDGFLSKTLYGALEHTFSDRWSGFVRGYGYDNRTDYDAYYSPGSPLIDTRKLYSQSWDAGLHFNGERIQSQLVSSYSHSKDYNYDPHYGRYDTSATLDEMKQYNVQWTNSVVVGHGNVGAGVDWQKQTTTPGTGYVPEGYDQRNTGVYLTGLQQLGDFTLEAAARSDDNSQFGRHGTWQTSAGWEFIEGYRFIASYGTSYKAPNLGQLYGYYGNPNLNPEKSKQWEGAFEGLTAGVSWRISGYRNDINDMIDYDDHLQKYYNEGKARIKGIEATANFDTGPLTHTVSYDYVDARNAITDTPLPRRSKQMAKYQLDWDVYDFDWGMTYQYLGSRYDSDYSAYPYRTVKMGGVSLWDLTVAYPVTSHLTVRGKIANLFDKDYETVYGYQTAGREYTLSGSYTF

For “Gifsy-1 central tail tip J protein with Flag tag (natural protein)”, the Kd [1] was 70 nM, the Kd [2] was 0.00597 nM and the Kd [3] was 0.341 nM.
